Tests used:
[1] = biological target: PARP2;HPF1 (Homo sapiens?;Homo sapiens?, UniProt Q9UGN5;Q9NWY4 1-583;1-346, |); assay: fluorescence polarization (release of labelled DNA on autoPARylation); 2 uM HPF1, PARPi; DNA released by 2 mM NAD+; 50 mM Tris-HCl pH 8.0, 50 mM NaCl, 1 mM MgCl2, 0.1 mM EDTA, 0.01% IGEPAL; temperature not stated; conditions: protein: recombinant;recombinant; (nickel column); copies: 1;1; label: fluorescein (5') in the FP DNA-release assay; blunt
[2] = biological target: PARP1;HPF1 (Homo sapiens?;Homo sapiens?, UniProt P09874;Q9NWY4 1-1014;1-346, |); assay: as above; conditions: protein: recombinant;recombinant; (nickel column); copies: 1;1; label: fluorescein (5') in the FP DNA-release assay; blunt
[3] = biological target: PARP2 (UniProt Q9UGN5 1-583); assay: fluorescence polarization (release of labelled DNA on autoPARylation); PARPi present or absent; DNA released by 2 mM NAD+, retained without NAD+; 50 mM Tris-HCl pH 8.0, 50 mM NaCl, 1 mM MgCl2, 0.1 mM EDTA, 0.01% IGEPAL; temperature not stated; conditions: protein: recombinant; label: fluorescein (5') in the FP DNA-release assay; blunt
[4] = biological target: PARP1 (UniProt P09874 1-1014); assay: as above; conditions: protein: recombinant; label: fluorescein (5') in the FP DNA-release assay; blunt

Measured: binding result

PARP2, sequence (Q9UGN5 whole entry): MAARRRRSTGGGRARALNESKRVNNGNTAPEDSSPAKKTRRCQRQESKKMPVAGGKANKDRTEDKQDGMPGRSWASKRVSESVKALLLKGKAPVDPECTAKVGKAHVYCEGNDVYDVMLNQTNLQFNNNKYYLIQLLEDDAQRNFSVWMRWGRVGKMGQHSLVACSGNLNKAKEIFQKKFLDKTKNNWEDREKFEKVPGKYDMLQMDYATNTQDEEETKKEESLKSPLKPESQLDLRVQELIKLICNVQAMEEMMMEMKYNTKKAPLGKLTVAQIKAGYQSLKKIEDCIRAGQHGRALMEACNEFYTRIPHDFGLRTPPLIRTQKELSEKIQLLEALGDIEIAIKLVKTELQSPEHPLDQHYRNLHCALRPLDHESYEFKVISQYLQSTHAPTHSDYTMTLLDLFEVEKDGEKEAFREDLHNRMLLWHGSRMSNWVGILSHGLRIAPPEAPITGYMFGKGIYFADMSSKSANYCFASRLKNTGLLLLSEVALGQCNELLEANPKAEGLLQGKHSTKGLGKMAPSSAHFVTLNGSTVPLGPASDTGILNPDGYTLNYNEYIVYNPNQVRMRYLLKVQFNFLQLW
PARP2;HPF1, sequence (Q9UGN5 whole entry, chain 1 of 2): as the sequence (Q9UGN5 whole entry) above
PARP2;HPF1, sequence (Q9NWY4 whole entry, chain 2 of 2): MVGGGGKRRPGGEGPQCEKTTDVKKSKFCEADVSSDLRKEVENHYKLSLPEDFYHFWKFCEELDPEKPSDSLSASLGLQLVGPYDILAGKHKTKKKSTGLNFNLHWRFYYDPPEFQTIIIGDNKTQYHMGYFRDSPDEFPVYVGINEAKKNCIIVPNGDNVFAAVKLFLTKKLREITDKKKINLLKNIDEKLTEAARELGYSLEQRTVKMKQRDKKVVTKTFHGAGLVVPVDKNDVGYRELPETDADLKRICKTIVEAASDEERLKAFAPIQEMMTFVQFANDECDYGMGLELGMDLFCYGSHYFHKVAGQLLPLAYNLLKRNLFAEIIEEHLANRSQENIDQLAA
PARP1, sequence (P09874 whole entry): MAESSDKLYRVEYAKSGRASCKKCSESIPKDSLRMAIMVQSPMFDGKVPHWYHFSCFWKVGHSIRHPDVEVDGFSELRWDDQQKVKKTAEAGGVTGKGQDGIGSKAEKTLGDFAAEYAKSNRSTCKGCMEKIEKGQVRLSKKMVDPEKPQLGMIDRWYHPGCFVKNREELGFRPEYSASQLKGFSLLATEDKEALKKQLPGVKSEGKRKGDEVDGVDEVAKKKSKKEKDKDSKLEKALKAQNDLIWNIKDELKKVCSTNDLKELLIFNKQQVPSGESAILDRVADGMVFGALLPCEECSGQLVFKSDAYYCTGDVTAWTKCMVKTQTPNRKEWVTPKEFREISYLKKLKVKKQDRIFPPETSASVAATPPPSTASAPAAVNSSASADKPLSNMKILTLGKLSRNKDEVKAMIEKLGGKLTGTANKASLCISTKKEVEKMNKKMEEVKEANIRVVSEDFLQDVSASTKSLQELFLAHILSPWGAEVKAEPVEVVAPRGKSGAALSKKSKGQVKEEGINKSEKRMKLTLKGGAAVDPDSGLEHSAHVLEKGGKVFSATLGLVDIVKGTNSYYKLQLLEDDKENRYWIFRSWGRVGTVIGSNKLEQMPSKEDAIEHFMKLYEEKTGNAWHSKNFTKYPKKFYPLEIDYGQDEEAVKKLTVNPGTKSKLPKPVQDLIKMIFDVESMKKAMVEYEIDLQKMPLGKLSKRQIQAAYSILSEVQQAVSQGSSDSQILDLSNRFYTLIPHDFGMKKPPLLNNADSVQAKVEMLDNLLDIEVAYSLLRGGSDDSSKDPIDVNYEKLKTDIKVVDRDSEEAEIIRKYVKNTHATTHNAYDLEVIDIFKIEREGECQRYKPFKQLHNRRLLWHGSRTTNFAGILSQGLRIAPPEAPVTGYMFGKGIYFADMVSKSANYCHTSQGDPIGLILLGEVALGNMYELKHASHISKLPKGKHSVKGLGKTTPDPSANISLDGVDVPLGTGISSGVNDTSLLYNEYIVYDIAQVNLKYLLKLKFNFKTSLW
PARP1;HPF1, sequence (P09874 whole entry, chain 1 of 2): as the sequence (P09874 whole entry) above
PARP1;HPF1, sequence (Q9NWY4 whole entry, chain 2 of 2): as the sequence (Q9NWY4 whole entry, chain 2 of 2) above

B1: p18mer (dsDNA)
DNA 1: GGGTTGCGGCCGCTTGGG
DNA 2: CCCAAGCGGCCGCAACCC
modifications: 5'-phosphate
binds: [1] | [2] | [3] | [4]

— paper PMC7854685, “Histone Parylation factor 1 contributes to the inhibition of PARP1 by cancer drugs”
